Target: T1, CD70 on CD70-expressing cancer cell lines (A498, ACHN, SK-OV-3, Hs-766T, NCI-H1975, Calu-1, DU 145, MM.1S, … (human, UniProt P32970 1-193))
T1 sequence (looked up): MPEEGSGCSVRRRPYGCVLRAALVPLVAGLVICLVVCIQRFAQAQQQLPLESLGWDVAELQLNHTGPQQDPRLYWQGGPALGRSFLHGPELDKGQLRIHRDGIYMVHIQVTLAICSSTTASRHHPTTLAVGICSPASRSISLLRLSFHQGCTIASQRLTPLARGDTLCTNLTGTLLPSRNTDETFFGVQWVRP
Experiment: cell-based or functional assay

B1: anti-CD70 CAR (CD70B scFv with 41BB; CD8 transmembrane domain, 41BB co-stimulatory domain, CD3z signaling domain) (other)
chain: QVQLVQSGAEVKKPGASVKVSCKASGYTFTNYGMNWVRQAPGQGLKWMGWINTYTGEPTYADAFKGRVTMTRDTSISTAYMELSRLRSDDTAVYYCARDYGDYGMDYWGQGTTVTVSSGGGGSGGGGSGGGGSGDIVMTQSPDSLAVSLGERATINCRASKSVSTSGYSFMHWYQQKPGQPPKLLIYLASNLESGVPDRFSGSGSGTDFTLTISSLQAEDVAVYYCQHSREVPWTFGQGTKVEIKSAAAFVPVFLPAKPTTTPAPRPPTPAPTIASQPLSLRPEACRPAAGGAVHTRGLDFACDIYIWAPLAGTCGVLLLSLVITLYCNHRNRKRGRKKLLYIFKQPFMRPVQTTQEEDGCSCRFPEEEEGGCELRVKFSRSADAPAYQQGQNQLYNELNLGRREEYDVLDKRRGRDPEMGGKPRRKNPQEGLYNELQKDKMAEAYSEIGMKGERRRGKGHDGLYQGLSTATKDTYDALHMQALPPR
- cell killing, 24 hours of co-culture, A498, ACHN, SK-OV-3 and Hs-766T cells, 1:1 effector:target cell ratio (3xKO and 4xKO CD70 CAR+ T cells): > 50%
- cell killing, 24 hours of co-culture, A498, ACHN, SK-OV-3 and Hs-766T cells, 4:1 effector:target cell ratio (3xKO and 4xKO CD70 CAR+ T cells): > 60%
- cell killing, 24 hours of co-culture, NCI-H1975, Calu-1 and DU 145 cells, 4:1 effector:target cell ratio: > 30%
- cell killing, 96 hours of co-culture, SKOV-3, Hs-766T and NIC-H1975 cells, 1:1 effector:target cell ratio: > 80%
